Data as given in PMC10395824 (PLOS Pathogens, 2023).

Molecular target: SARS-CoV-2 S1 RBD2 (Wuhan RBD, S-protein amino acids 319-541) (SARS-CoV-2 Wuhan, UniProt P0DTC2)
Assay: […] (150 mM NaCl, 20 mM Tris pH 7.5); […], MES pH 5.5, […]
Conditions: both partners purified

B1: Fab ICO-hu23 (Fab, V domains shown)
VH: EVQLVQSGAEVKKPGASVKVSCKASGYTFTGYYFHWVRQAPGQGLEWMGWINPISGGTKYAQKFQGWVTMTRATSISTVYMEVSRLRSDDTAVYYCARGHTYNWNYAYCDYWGQGTLVTVSS
VL: SYVLTQPASVSGSPGQSITISCTGTSSDVGVYNYVSWYQQHPGKAPKLMIYDVSNRPSGVSNRFSGSKSGNTASLTISGLQAEDEADYYCSSYTSSSTLVFGGGTKLTVL
Q: Does B1 bind?
A: binds
